1 molecule from patent US10058586B2, “Use of human small leucine zipper protein in adipocyte differentiation procedure” (Korea University Research and Business Foundation, priority 2013, dated 2018) can be followed below.

Test [1] has as its system FABP4 and other PPARγ2 target genes. Description: RT-PCR and real-time PCR of PPARγ2 target genes in differentiated preadipocytes of sLZIP TG mice. The format is cell-based, mouse. The conditions noted are these: sLZIP TG mice preadipocytes differentiated into adipocytes. Here is the method: According to instructions of the manufacturer, a TRIzol reagent (Invitrogen, Carlsbad, Calif.) was added to directly lyse cells in a culture dish. Accupower RT PreMix (BioNeer, Daejeon, Korea) was used to synthesize cDNA from 2 μg of total RNA. A reaction was performed for 60 minutes at 42° C. and for 5 minutes at 94° C. PCR amplification was performed using oligomers listed in Table 2 and a Hipi PCR Mix Kit (ELPIS). As an internal control group, GAPDH was amplified. A PCR product was subjected to electrophoresis in 1-2% (w/v) agarose gel containing 0.5 μg/mL ethidium bromide. A size of the PCR product was measured by comparing it with 1 kb DNA ladder marker (Invitrogen). An intensity of bands amplified according to RT-PCR was analyzed using MultiImage™ Light Cabinet (version 5.5, Alpha Innotech Corp., San Leandro, Calif.).
Real-time PCR was performed in LightCycler 480 using a SYBR Green Master Mix (Roche, Mannheim, Germany). β-actin was used as an internal control group. A target gene expression level rate with respect to β-actin was calculated using CT method. A Ct value is defined as a PCR cycle number at which a fluorescence signal reaches a fixed target threshold. Experiments were technically repeated three times for each experiment.
Adipocyte differentiation is a well-regulated procedure. […] A promoter activity was measured according to luciferase analysis (FIG. 8B). […]
In general terms: Quantitative PCR measures a nucleic acid by following its amplification.

A further test has as its target T1, PPARγ2 (Homo sapiens, UniProt P37231).
T1 sequence (P37231 1-505): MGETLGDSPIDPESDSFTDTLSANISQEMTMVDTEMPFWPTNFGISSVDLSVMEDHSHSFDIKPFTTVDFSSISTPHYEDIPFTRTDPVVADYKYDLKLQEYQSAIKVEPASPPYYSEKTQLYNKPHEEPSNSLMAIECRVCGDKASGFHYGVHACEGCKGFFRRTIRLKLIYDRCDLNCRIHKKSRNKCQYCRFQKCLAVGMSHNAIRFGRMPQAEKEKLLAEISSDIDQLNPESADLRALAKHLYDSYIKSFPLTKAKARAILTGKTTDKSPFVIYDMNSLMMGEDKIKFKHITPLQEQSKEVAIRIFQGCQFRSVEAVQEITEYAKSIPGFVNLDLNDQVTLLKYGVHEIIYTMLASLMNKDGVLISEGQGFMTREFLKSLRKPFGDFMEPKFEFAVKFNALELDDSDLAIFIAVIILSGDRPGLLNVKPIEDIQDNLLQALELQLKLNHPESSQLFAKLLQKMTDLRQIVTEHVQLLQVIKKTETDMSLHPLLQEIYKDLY
In words: His pull-down of purified His-sLZIP with in vitro translated PPARγ2. Type of test: binding. On the set-up: made in house; host or cells: PPARγ2: TNT in vitro translation system (Promega); His-sLZIP: E. coli BL21, pET-28a(+). Here is the method:
sLZIP was cloned into a pET-28a(+) vector. His-sLZIP proteins were expressed in Escherichia coli (E. coli) BL21 cells using a T7 isopropyl-β-D-thiogalactopyranoside (IPTG)-inducible system. IPTG-induced cells were disrupted bysonification and cell lysates were clarified by centrifugation. His-sLZIP proteins were applied onto a nickel-nitrilotriacetic acid bead column (Bio-Rad, Richmond, Calif.). The column was washed with a great volume of a lysis buffer and 10 mM of imidazole, and eluted in a Ni-NTA elution buffer (Bio-Rad Laboratories, Hercules, Calif.). A fraction containing His-sLZIP proteins was dialyzed against 10% glycerol, and stored at −80° C. Protein purification was evaluated according to 10% SDS-PAGE/Coomassie blue staining and a purity of >98% in general was shown.
In order to examine whether the transcriptional activity of PPARγ2 is regulated by interaction with sLZIP, interaction between sLZIP and PPARγ2 was examined. […] A protein complex was analyzed in SDS-PAGE and then immunoblotted with specific antibodies (FIG. 2A). […] Proteins bound to the bead were analyzed in SDS-PAGE, and then immunoblotted with anti-PPARγ2 and anti-His antibodies (FIG. 2C). GFP-PPARγ2 and Flag-sLZIP constructs were expressed in C3H10T1/2 cells, and analyzed using mouse anti-Flag and Texas Red-labeled anti-mouse antibodies under a fluorescence microscope. […]

B1: sLZIP: human small leucine-zipper protein, isoform of LZIP, 354 amino acids, no transmembrane domain; GenBank FJ263669, SEQ ID NO: 1 (protein, listed as Homo sapiens)
chain: MELELDAGDQDLLAFLLEESGDLGTAPDEAVRAPLDWALPLSEVPSDWEVDDLLCSLLSPPASLNILSSSNPCLVHHDHTYSLPRETVSMDLESESCRKEGTQMTPQHMEELAEQEIARLVLTDEEKSLLEKEGLILPETLPLTKTEEQILKRVRRKIRNKRSAQESRRKKKVYVGGLESRVLKYTAQNMELQNKVQLLEEQNLSLLDQLRKLQAMVIEISNKTSSSSMYSSDTRGSLPAEHGVLSRQLRALPSEDPYQLELPALQSEVPKDSTHQWLDGSDCVLQAPGNTSCLLHYMPQAPSAEPPLEWPFPDLFSEPLCRGPILPLQANLTRKGGWLPTGSPSVILQDRYSG
Take B1: the “expression of FABP4 and other PPARγ2 target genes (C/EBPα, LPL) mRNA” value in test [1] is on record as “down-regulated”. For the same molecule, in the test with PPARγ2, the “direct interaction with PPARγ2 (His pull-down)” value is on record as “PPARγ2 was directly bound to sLZIP”.
